Measurements reported in publication PMC11162790.

Test system: ArsR-P (phosphorylated His6-ArsR) (Helicobacter pylori SMI109)
Assay: EMSA
Details: Buffer F: 50 mM Tris-acetate pH 7.5, 100 mM K-glutamate, 20 mM Mg-acetate, 5% glycerol, 0.1 ug poly dI-dC, 25 C, 30 min; EMSA 5-7 nM DNA, footprint 25 nM DNA

In the case of PsabA SMI109 (T13, wt) 407 bp, the K half is reported as 1350 nM.
